{"source": "paper PMC10901556", "about": "“Conservation of Affinity Rather Than Sequence Underlies a Dynamic Evolution of the Motif-Mediated p53/MDM2 Interaction in Ray-Finned Fishes” (Molecular Biology and Evolution, 2024)", "key": {"[1]": {"target": "MDM2 SWIB domain from Anguilla anguilla (European eel) (Anguilla anguilla (European eel))", "test": "fluorescence polarisation; displacement: complex of MDM2 (0.2-2 μM) and FITC-p53TAD_(human)^15–26 (15 nM) displaced by increasing unlabeled p53TAD peptide or p53TAD^full-length; KD calculated from IC50 (Nikolovska-Coleska et al. 2004); 20 mM sodium phosphate pH 7.4, 150 mM NaCl, 1 mM TCEP"}, "[2]": {"target": "MDM2 SWIB domain from Channa argus (Channa argus)", "test": "fluorescence polarisation; displacement: complex of MDM2 (0.2-2 μM) and FITC-p53TAD_(human)^15–26 (15 nM) displaced by increasing unlabeled p53TAD peptide or p53TAD^full-length; KD calculated from IC50 (Nikolovska-Coleska et al. 2004); 20 mM sodium phosphate pH 7.4, 150 mM NaCl, 1 mM TCEP"}, "[3]": {"target": "MDM2 SWIB domain from Clupea harengus (Atlantic herring) (Clupea harengus (Atlantic herring))", "test": "fluorescence polarisation; displacement: complex of MDM2 (0.2-2 μM) and FITC-p53TAD_(human)^15–26 (15 nM) displaced by increasing unlabeled p53TAD peptide or p53TAD^full-length; KD calculated from IC50 (Nikolovska-Coleska et al. 2004); 20 mM sodium phosphate pH 7.4, 150 mM NaCl, 1 mM TCEP"}, "[4]": {"target": "MDM2 SWIB domain from Lepisosteus oculatus (spotted gar) (Lepisosteus oculatus (spotted gar))", "test": "fluorescence polarisation; displacement: complex of MDM2 (0.2-2 μM) and FITC-p53TAD_(human)^15–26 (15 nM) displaced by increasing unlabeled p53TAD peptide or p53TAD^full-length; KD calculated from IC50 (Nikolovska-Coleska et al. 2004); 20 mM sodium phosphate pH 7.4, 150 mM NaCl, 1 mM TCEP"}, "[5]": {"target": "MDM2 SWIB domain from Maylandia zebra (Maylandia zebra)", "test": "fluorescence polarisation; displacement: complex of MDM2 (0.2-2 μM) and FITC-p53TAD_(human)^15–26 (15 nM) displaced by increasing unlabeled p53TAD peptide or p53TAD^full-length; KD calculated from IC50 (Nikolovska-Coleska et al. 2004); 20 mM sodium phosphate pH 7.4, 150 mM NaCl, 1 mM TCEP"}, "[6]": {"target": "MDM2 SWIB domain from Oncorhynchus kisutch (coho salmon) (Oncorhynchus kisutch (coho salmon))", "test": "fluorescence polarisation; displacement: complex of MDM2 (0.2-2 μM) and FITC-p53TAD_(human)^15–26 (15 nM) displaced by increasing unlabeled p53TAD peptide or p53TAD^full-length; KD calculated from IC50 (Nikolovska-Coleska et al. 2004); 20 mM sodium phosphate pH 7.4, 150 mM NaCl, 1 mM TCEP"}, "[7]": {"target": "MDM2_(D.rerio) SWIB domain (Danio rerio (zebrafish))", "sequence (O42354 10-102)": "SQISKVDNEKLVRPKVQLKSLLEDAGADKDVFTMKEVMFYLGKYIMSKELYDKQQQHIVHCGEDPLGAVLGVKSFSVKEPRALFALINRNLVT", "test": "fluorescence polarisation; displacement: complex of MDM2 (0.2-2 μM) and FITC-p53TAD_(human)^15–26 (15 nM) displaced by increasing unlabeled p53TAD peptide or p53TAD^full-length; KD calculated from IC50 (Nikolovska-Coleska et al. 2004); 20 mM sodium phosphate pH 7.4, 150 mM NaCl, 1 mM TCEP"}, "[8]": {"target": "MDM2 SWIB (Homo sapiens) (UniProt Q00987)", "sequence (Q00987 23-112)": "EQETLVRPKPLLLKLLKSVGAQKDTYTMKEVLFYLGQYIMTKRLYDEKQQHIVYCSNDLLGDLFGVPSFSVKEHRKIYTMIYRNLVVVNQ", "conditions": "cited from earlier work"}, "[9]": {"target": "MDM2_(D.rerio) SWIB domain (Danio rerio (zebrafish))", "test": "ITC; MicroCal iTC200, 25 °C; D. rerio MDM2 11 μM in the cell, p53TAD 118 or 116 μM in the syringe; 20 mM sodium phosphate pH 7.4, 150 mM NaCl, 1 mM TCEP"}, "[10]": {"target": "MDM2_(D.rerio) SWIB domain", "test": "fluorescence polarization competition assay"}, "[11]": {"target": "MDM2 SWIB domain from Takifugu rubripes (Japanese puffer) (Takifugu rubripes (Japanese puffer))", "test": "fluorescence polarisation; displacement: complex of MDM2 (0.2-2 μM) and FITC-p53TAD_(human)^15–26 (15 nM) displaced by increasing unlabeled p53TAD peptide or p53TAD^full-length; KD calculated from IC50 (Nikolovska-Coleska et al. 2004); 20 mM sodium phosphate pH 7.4, 150 mM NaCl, 1 mM TCEP"}}, "note": "pKd: −log10 of the molar value.", "data": [{"substance": "Anguilla anguilla (European eel) p53TADP1 p53TAD^full-length (domain or fragment)", "values": [{"measurement": "pKd", "setting": "[1]", "value": 6.64}]}, {"substance": "Anguilla anguilla p53TADP2 p53TAD^full-length (domain or fragment)", "values": [{"measurement": "pKd", "setting": "[1]", "value": 7.22}]}, {"substance": "Channa argus p53TADP1 p53TAD^full-length (domain or fragment)", "values": [{"measurement": "pKd", "setting": "[2]", "value": 7.00}]}, {"substance": "Clupea harengus (Atlantic herring) p53TADP1 p53TAD^full-length (domain or fragment)", "values": [{"measurement": "pKd", "setting": "[3]", "value": 6.72}]}, {"substance": "Clupea harengus p53TADP2 p53TAD^15–27 (peptide)", "values": [{"measurement": "pKd", "setting": "[3]", "value": 6.22}]}, {"substance": "Clupea harengus p53TADP2 p53TAD^full-length (domain or fragment)", "values": [{"measurement": "pKd", "setting": "[3]", "value": 7.40}]}, {"substance": "Lepisosteus oculatus (spotted gar) p53TAD^full-length (domain or fragment)", "values": [{"measurement": "pKd", "setting": "[4]", "value": 7.07}]}, {"substance": "Maylandia zebra p53TADP1 p53TAD^full-length (domain or fragment)", "values": [{"measurement": "pKd", "setting": "[5]", "value": 6.72}]}, {"substance": "Oncorhynchus kisutch (coho salmon) p53TADP1a p53TAD^full-length (domain or fragment)", "values": [{"measurement": "pKd", "setting": "[6]", "value": 7.32}]}, {"substance": "Oncorhynchus kisutch p53TADP1b p53TAD^full-length (domain or fragment)", "values": [{"measurement": "pKd", "setting": "[6]", "value": 7.22}]}, {"substance": "Oncorhynchus kisutch p53TADP2 p53TAD^full-length (domain or fragment)", "values": [{"measurement": "pKd", "setting": "[6]", "value": 7.15}]}, {"substance": "alternative p53TAD^17–32_(D.rerio) (P79734) (peptide)", "values": [{"measurement": "pKd", "setting": "[7]", "value": 6.24}]}, {"substance": "p53 TAD (from UniProt P04637)", "values": [{"measurement": "pKd", "setting": "[8]", "value": 7.00}]}, {"substance": "p53TAD^17–32_(D.rerio) (peptide)", "values": [{"measurement": "pKd", "setting": "[9]", "value": 6.52}, {"measurement": "pKd", "setting": "[7]", "value": 6.74}]}, {"substance": "p53TAD^17–32_(D.rerio) I28A", "values": [{"measurement": "pKd", "setting": "[10]", "value": 6.34}]}, {"substance": "p53TAD_(D.rerio)^full-length (domain or fragment)", "values": [{"measurement": "pKd", "setting": "[9]", "value": 7.00}, {"measurement": "pKd", "setting": "[7]", "value": 7.31}]}, {"substance": "p53TAD_(H.sapiens)^15–27 (peptide)", "values": [{"measurement": "pKd", "setting": "[1]", "value": 6.05}, {"measurement": "pKd", "setting": "[2]", "value": 5.68}, {"measurement": "pKd", "setting": "[3]", "value": 5.74}, {"measurement": "pKd", "setting": "[4]", "value": 6.43}, {"measurement": "pKd", "setting": "[5]", "value": 5.77}, {"measurement": "pKd", "setting": "[6]", "value": 6.11}, {"measurement": "pKd", "setting": "[11]", "value": 5.96}]}]}
